The values below are quoted from earlier work in publication PMC4755228.

The target in this data set is CD38 (Homo sapiens) (UniProt P28907). Kind of data set: BIAcore SPR. On the technique in general: Surface plasmon resonance follows binding to a sensor surface in real time, without labels.

For daratumumab, the Kd is 4.36 nM.

The term Kd denotes the equilibrium constant for the complex coming apart.
